Results published in US20190247381A1.

B1: ACOX1 (protein)
chain: MNPDLRRERDSASFNPELLTHILDGSPEKTRRRREIENMILNDPDFQHEDLNFLTRSQRYEVAVRKSAIMVKKMREFGIADPDEIMWFKKLHLVNFVEPVGLNYSMFIPTLLNQGTTAQKEKWLLSSKGLQIIGTYAQTEMGHGTHLRGLETTATYDPETQEFILNSPTVTSIKWWPGGLGKTSNHAIVLAQLITKGKCYGLHAFIVPIREIGTHKPLPGITVGDIGPKFGYDEIDNGYLKMDNHRIPRENMLMKYAQVKPDGTYVKPLSNKLTYGTMVFVRSFLVGEAARALSKACTIAIRYSAVRHQSEIKPGEPEPQILDFQTQQYKLFPLLATAYAFQFVGAYMKETYHRINEGIGQGDLSELPELHALTAGLKAFTSWTANTGIEACRMACGGHGYSHCSGLPNIYVNFTPSCTFEGENTVMMLQTARFLMKSYDQVHSGKLVCGMVSYLNDLPSQRIQPQQVAVWPTMVDINSPESLTEAYKLRAARLVEIAAKNLQKEVIHRKSKEVAWNLTSVDLVRASEAHCHYVVVKLFSEKLLKIQDKAIQAVLRSLCLLYSLYGISQNAGDFLQGSIMTEPQITQVNQRVKELLTLIRSDAVALVDAFDFQDVTLGSVLGRYDGNVYENLFEWAKNSPLNKAEVHESYKHLKSLQSKL
B2: YARS2 (protein)
chain: TLNLSVLLPLGLRKAHSGAQGLLAAQKARGLFKDFFPETGTKIELPELFDRGTASFPQTIYCGFDPTADSLHVGHLLALLGLFHLQRAGHNVIALVGGATARLGDPSGRTKEREALETERVRANARALRLGLEALAANHQQLFTDGRSWGSFTVLDNSAWYQKQHLVDFLAAVGGHFRMGTLLSRQSVQLRLKSPEGMSLAEFFYQVLQAYDFYYLFQRYGCRVQLGGSDQLGNIMSGYEFINKLTGEDVFGITVPLITSTTGAKLGKSAGNAVWLNRDKTSPFELYQFFVRQPDDSVERYLKLFTFLPLPEIDHIMQLHVKEPERRGPQKRLAAEVTKLVHGREGLDSAKRCTQALYHSSIDALEVMSDQELKELFKEAPFSEFFLDPGTSVLDTCRKANAIPDGPRGYRMITEGGVSINHQQVTNPESVLIVGQHILKNGLSLLKIGKRNFYIIKWLQL
B3: SSB (protein)
chain: MAENGDNEKMAALEAKICHQIEYYFGDFNLPRDKFLKEQIKLDEGWVPLEIMIKFNRLNRLTTDFNVIVEALSKSKAELMEISEDKTKIRRSPSKPLPEVTDEYKNDVKNRSVYIKGFPTDATLDDIKEWLEDKGQVLNIQMRRTLHKAFKGSIFVVFDSIESAKKFVETPGQKYKETDLLILFKDDYFAKKNEERKQNKVEAKLRAKQEQEAKQKLEEDAEMKSLEEKIGCLLKFSGDLDDQTCREDLHILFSNHGEIKWIDFVRGAKEGIILFKEKAKEALGKAKDANNGNLQLRNKEVTWEVLEGEVEKEALKKIIEDQQESLNKWKSKGRRFKGKGKGNKAAQPGSGKGKVQFQGKKTKFASDDEHDEHDENGATGPVKRAREETDKEEPASKQQKTENGAGDQ
B4: SERPINH1 (protein)
chain: AEVKKPAAAAAPGTAEKLSPKAATLAERSAGLAFSLYQAMAKDQAVENILVSPVVVASSLGLVSLGGKATTASQAKAVLSAEQLRDEEVHAGLGELLRSLSNSTARNVTWKLGSRLYGPSSVSFADDFVRSSKQHYNCEHSKINFRDKRSALQSINEWAAQTTDGKLPEVTKDVERTDGALLVNAMFFKPHWDEKFHHKMVDNRGFMVTRSYTVGVMMMHRTGLYNYYDDEKEKLQIVEMPLAHKLSSLIILMPHHVEPLERLEKLLTKEQLKIWMGKMQKKAVAISLPKGVVEVTHDLQKHLAGLGLTEAIDKNKADLSRMSGKKDLYLASVFHATAFELDTDGNPFDQDIYGREELRSPKLFYADHPFIFLVRDTQSGSLLFIGRLVRPKGDKMRDEL

The molecules below were run against FLAG-HA-Atoh1 (Mus musculus (Mouse)) (UniProt P48985) (assay: IP-MS: immunoprecipitation of Atoh1 and its associated binding partners, excised gel band, mass spectrometry).

Point of comparison: TUBB2B (from UniProt Q9BVA1), Total peptide 2 peptides. Against it:
- AAMP (from UniProt Q13685) — lower, 1 peptides
- BCKDHA (from UniProt P12694) — higher, 5 peptides
- CK1δ (CSNK1D), endogenous in 293T cells (from UniProt P48730) (enzyme) — higher, 7 peptides
- CK1ε (CSNK1E), endogenous in 293T cells (from UniProt P49674) (enzyme) — higher, 6 peptides
- EEF1A1 (from UniProt P68104) — higher, 103 peptides
- ENO1 (from UniProt P06733) — higher, 62 peptides
- PDE4B (from UniProt Q07343) — lower, 1 peptides
- PRDX4 (from UniProt Q13162) — lower, 1 peptides
- PRPS1 (from UniProt P60891) — higher, 3 peptides
- PSMC2 (from UniProt P35998) — higher, 50 peptides
- PSMC5 (from UniProt P62195) — higher, 52 peptides
- RBMX (from UniProt P38159) — higher, 65 peptides
- TUBA1A (from UniProt Q71U36) — higher, 112 peptides
- TUBA1C (from UniProt Q9BQE3) — higher, 7 peptides
- TUBA4A (from UniProt P68366) — lower, 1 peptides
- TUBB2A (from UniProt Q13885) — higher, 159 peptides
- B1 — higher, 5 peptides
- B2 — higher, 11 peptides
- B3 — higher, 65 peptides
- B4 — higher, 9 peptides
